Test results reported in the nanobody polyreactivity screen of Harvey et al. (2022).

Experiment: yeast display, Sf9 membrane polyspecificity reagent, FACS + sequencing; frameworks hold sequencing errors
Method in brief: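 In a synthetic yeast display library (Saccharomyces cerevisiae BJ5465), nanobody expression was induced with galactose for 36–48 hours. FACS gates were set low and high (top ~1%) using anti-HA fluorescence for expression and streptavidin fluorescence for binding of the Sf9 membrane reagent. Each polyreactivity label is drawn from the gate of origin.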

| Sequence | polyreactivity (PSR sort gate) |
| --- | --- |
| QVQLVESGGGLVQAGGSLRLSCAASGSTFYYNDMGWYRQAPGKERELVAAIRTSGSTNYADSVKGRFTISRDYAKNNVYLQMNSLKPEDTAVYYCNAVVRHWFPGWYGRGDDYWGQGTQVTVSS | low polyreactivity |
| QVQLVESGGGLVQAGGSLRLSCAASGSTFYYNTMGWYRQAPGKERELVAAISRSGGSTYYADSVKGRFTISRDNAKNTVYLQMNSLKPEDTAVYYCAARIIGARNLYGYWGQGTQVTVSS | high polyreactivity |
| QVQLVESGGGLVQAGGSLRLSCAASGSTFYYYAMGRYRQAPGKEMELVATISRGGSTNYADSVKGRFTISRDNAKNTVYLQMNSLKPEDTAVYYCAIGYLRPYGSHRESTPYDYWGEGTQVTVSS | low polyreactivity |
| QVQLVESGGGLVQAGGSLRLSCAASGSTFYYYAMGWYRQAPGKEREFVASISSRGTSTYYADSVKGPFTISRDNAKNTVYLQMNSLKPEDTAVYYCAARGWGPTRAYDYWGQGTQVTVSS | high polyreactivity |
| QVQLVESGGGLVQAGGSLRLSCAASGSTFYYYAMGWYRQAPGKERELVAAIDWSGESTYYADSVKGRFTISRDNAKNTVYLQMNSLKPEDTAVYYCAAVRSAQRWRRYYYWGQGTQVTVSS | low polyreactivity |
| QVQLVESGGGLVQAGGSLRLSCAASGSTFYYYAMGWYRQAPGKERELVAAINYNGGSTHYADSVKGRFTISRDNAKNTVYLQMISLKPEDTAVYYCAAKYRLSYTHGYWGQGSQVTVSS | low polyreactivity |
| QVQLVESGGGLVQAGGSLRLSCAASGSTFYYYAMGWYRQAPGKERELVAAISGGGNTKYADSVKGRFTISRDNAKNTVYLQMNSLKPEDTAVYYCAARLAYWYYYAWRGPYYYWGQGPQVTVSS | high polyreactivity |
| QVQLVESGGGLVQAGGSLRLSCAASGSTFYYYAMGWYRQAPGKERELVAAISRGGSTYYADSVKGRFTISRDNAKNTVYLQMNSLKPEDTAVYYCAVDARPYRQIYLYEYWGQGTQVTVSS | low polyreactivity |
| QVQLVESGGGLVQAGGSLRLSCAASGSTFYYYAMGWYRQAPGKERELVAAITLRGTSTYYADSVKGRFTISRDNAKNTVYLQMNRLKPEDTAVYYCAVETYYSIFDIYDYWGQGTQVTVSS | low polyreactivity |
| QVQLVESGGGLVQAGGSLRLSCAASGSTFYYYAMGWYRQAPGKERELVASIRSRDGSTRYADSVKGRFTISRDNAKNTVYLQMNSLKPEDTAVYYCAAVGYRRVDAGSSASRYDYWGQGTQVTVSS | high polyreactivity |
| QVQLVESGGGLVQAGGSLRLSCAASGSTFYYYAMGWYRQAPGKERELVAVITFSGGSTNYADSVKGRFTISRDNAKNTVYLQMNSLKPEDTAVYYCAADTYSYRYSNDYWGQGTQVTVSS | low polyreactivity |
| QVQLVESGGGLVQAGGSLRLSCAASGSTFYYYAMGWYRQAPGKESELVAAISPSGDSTYNADSVKGRFTISRENSKNTVYLQMNSLKPEDTAVYYFAAQYYFYPQEFDDWGQGTQVTVSS | low polyreactivity |
| QVQLVESGGGLVQAGGSLRLSCAASGSTFYYYAMGWYSQAPGKERDLVAVISWGGGSTYYADSVKGRFTISRDNAKNTVYLQMNSLKPEDTAVYYCAAVYDAYQTTDEYDYWGQGTQVTVSS | low polyreactivity |
| QVQLVESGGGLVQAGGSLRLSCAASGSTFYYYVRGWYRQAPGKERELVAAINSGGSTYYADSVKGRFTISRDNAKNTVYLQMNSLKPEDTAVYYCAKSWSYWYQYYYWGQGSQVTVSS | low polyreactivity |
| QVQLVESGGGLVQAGGSLRLSCAASGSTHNQNAMGWSRQAPGKETELVAAISSNGGTTYYADSVKWRFTISRDNAKNTVYLQMNSLKQEDTAVYYCAADWDRYVPRSYYRVSWYDYWGQGTQVTVSS | low polyreactivity |
| QVQLVESGGGLVQAGGSLRLSCAASGSTIDTYAMGWYRQAPGKERELVAAIRYTGGRTYYADSVKGRCTISSDNAKNTVYLHMNSLKPEDTAVYYCNADGTKWVRETYDYWGQGTQVTVSS | low polyreactivity |

| Sequence | polyreactivity (PSR sort gate) |
| --- | --- |
| QVQLVESGGGLVQAGGSLRLSCAASGSTIEDNTMGWYRQAPGKERELVAAISNSGGSTYYADSVKGRFTISRDYAKNTVYLQMISLKPEDTAVYYCAADFYDPFDYWGQGTQVTVSS | low polyreactivity |
| QVQLVESGGGLVQAGGSLRLSCAASGSTIEDYAMGWYRQAPGKERELVAAISWRSDITYYADSVKGRFTISRDNAKNTVYLQMNSLKPEDTAVYYCAADNSYHWLDREFDYEFDYWGQGTQVTVSS | high polyreactivity |
| QVQLVESGGGLVQAGGSLRLSCAASGSTIFENVMGWYRQAPGKEREFVAAINTSGGSTYYADSVKGRFTISRDNAKNTVYLQMNILKPEDTAVYYCARDSYWELDYWGQGTQVTVSS | low polyreactivity |
| QVQLVESGGGLVQAGGSLRLSCAASGSTIFGNVMGWYRQAPGKERELVAVITNRGGSTYYADSVKGRFTISRDNAKNTVYLQMNSLKPEDTAVYYCATRSRPRSYYYWGQGTQVTVSS | high polyreactivity |
| QVQLVESGGGLVQAGGSLRLSCAASGSTIFGNVMGWYRQAPGKERELVAVITNRGGSTYYADSVKGRFTISRDNAKNTVYLQMNSLTPEDTAVYYCNARPLYHFWYYSGEEYGYWGQGTQVSVSS | high polyreactivity |
| QVQLVESGGGLVQAGGSLRLSCAASGSTIFSYAMGWYRQAPGKERELVAAISWIDDGTYYADSVKGRFTISRDNAKNTVYLQMNSLKPEDTAVYYCAADIGAYRTWDYEYWGQGTQVTVSS | low polyreactivity |
| QVQLVESGGGLVQAGGSLRLSCAASGSTIGAYAMGWYRQAPGKERELVAAITFSVGSTYYADSVKGRFTISRDNAKNTVYLQMNSLKPEDTAVYYCAADYYIYRSKYYQSTIQGYYYWGQGTQVTVSS | high polyreactivity |
| QVQLVESGGGLVQAGGSLRLSCAASGSTIGGYAMGWYRQAPGKERELVAAISWDDVRTYYADSVKGRFTISRDNAKNTVYLLMNSLKPEDTAVYYCNTDGLIAIRGLWWVEYDYWGQGTQVTVSS | low polyreactivity |
| QVQLVESGGGLVQAGGSLRLSCAASGSTIGGYAMGWYRQAPGKERELVAAITRSGGRTYYADSVKGRFTISRDNAKKTVYLQMNSLKPEDTAVYFCATLVTNARYDSWGQGTQVTVSS | high polyreactivity |
| QVQLVESGGGLVQAGGSLRLSCAASGSTIGSYAMRLSRQAPGTERELVAVITSDGRTNYADSVKGRFTISRDNAKNTVYLQMNSLKPEDTAVYYCAAGYGRWRYGTGVYDNYYYWGQGTQVTVSS | low polyreactivity |
| QVQLVESGGGLVQAGGSLRLSCAASGSTINKYAMGWYRQAPGKERELVAAISRSGGSTNYADSVKGRFTISRDNAKNTVYLQMNSLKPEDTAVYYCNAGYGRWQRHDYWGQGTQVTVSS | high polyreactivity |
| QVQLVESGGGLVQAGGSLRLSCAASGSTINQYPMGWYRQAPGKERDLVAAITRRGGSTYYADSVKGRCTISSDNAKNTVYLQLNSLKPEDTAVYYCAAAYPYTTVSYDYWGQGTQVTVSS | high polyreactivity |
| QVQLVESGGGLVQAGGSLRLSCAASGSTIPGNAMGWYRQAHGKERELVASISGGGDSTYYADSVKGRFTISRDNAKNTVYLQMKSLKPEDTAVYYCAADYRQEPGYTGYYYLGQGTQVTVSS | low polyreactivity |
| QVQLVESGGGLVQAGGSLRLSCAASGSTIPPNAMGWYRQAPGKERELVAVISNGGSNTRYADSVKGRFTISRDNAKNTVYLQMNRLKPEDTAVYYCAADYEYSGYGYWGQGTQVTVSS | high polyreactivity |
| QVQLVESGGGLVQAGGSLRLSCAASGSTIPRYAMGWYRQAPGKERELVAAISGRGGSTYYADSVKGRFTISRDNAKNSFYFQLISLKPEDTAVYYCNAYRRYYTMYYWGQGTQVTVSS | high polyreactivity |
